According to the nanobody polyreactivity screen of Harvey et al. (2022):

assay: yeast display, Sf9 membrane polyspecificity reagent, FACS + sequencing; frameworks hold sequencing errors
How it was run: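 Sorting gates, low and high (top ~1%), were placed on anti-HA fluorescence to track expression and on streptavidin fluorescence to track reagent binding. A clone's polyreactivity label is taken from the gate it came out of. The reagent was 10% biotinylated, detergent-solubilized Sf9 membrane, applied for 1 hour at 4 °C to galactose-induced yeast display cells.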

Sequence	polyreactivity (PSR sort gate)
QVQLVESGGGLVQAGGSLRLSGAASGNIFDNYAMGWYRQAPGKERELVAAITWSGGSTYYADSVKGRFTISRDNAKNTVYLQMNSLKPEDTAVYFCNTDYNHVFAYDHWGQGTQVTVSS	low polyreactivity
QVQLVESGGGLVQAGGSLRLSGAASGRIFAQYAMGWYRPAPAKERELVAAITAGDDTYADSVKGRFTISRDNAKNTVYLQMNSLKPEDTAVYYCAAETWDLTWWGAYDLGEYWGQGTQVTVSS	high polyreactivity
QVQLVESGGGLVQAGGSLRLSGAASGRIFATNAMGWYRQAPGKETELVATITRSAGRTYYADSVKGRFTNSRDNAKNTVYLQMNSLKPEETAVYYCAASYWDTEPGYREYDYWGQGTQVTVSS	low polyreactivity
QVQLVESGGGLVQAGGSLRLSGAASGRIFGSYARGWYRQAPGKEREFVAGIRSVGSTNYADSVKGRFTISRDNAKNTVYLQMNSLKPEDTAVSYCASRLWHVSYAGQGGDYWGKGTQVTVSS	low polyreactivity
QVQLVESGGGLVQAGGSLRLSGAASGRTFKHYVMGWYRQAPGKARELVAAYRSGGRTNYADSVKGRFTISRDNAKNTVYLQMNRVKPADTAVYYCAARYFSQYQGAGYDSWGQGTQVTVSS	high polyreactivity
QVQLVESGGGLVQAGGSLRLSGDATGLIFNKYAMGWYRQAPGKERELVAVISFRGDGTHYADSVKGRFTISRDNAKYTVYLQMNSLKPEDTAVYYCNARTSIYGRRLYDYWGQGTQVTVSS	high polyreactivity
QVQLVESGGGLVQAGGSLRLSGSASGRTFSQYVMRWYRQAPGQERELVAAISKRGGRTYYADSVQGRFTISRDNAKNTVYLQMNSLNPEDTAVYYCNDVYRYYPFDYWGQGTQVTVSS	high polyreactivity
QVQLVESGGGLVQAGGSLRLSRAASGFTWSYAMGWYRQAPGKERELVATISDGVSTNYADSVKGRFTISRDNAKNTVYLQRNSLKPEDTAVYYCAAEIPRRWASFATLWYDYWGQGTQVTVSS	low polyreactivity
QVQLVESGGGLVQAGGSLRLSRAASGRTFYGYAMGWYRQAPGKESELVARIRSGGSTNYADSVKGRFTISRDNAKNTVYLLMNSLIPEDTAVFYCAARPGAAGYKYYYWGQGTQVTVSS	high polyreactivity
QVQLVESGGGLVQAGGSLRLSSAASARIFFKNTKGWYRPAPGKERELVAAITSSGSSTYYADSVKGRFTISRDNAKKTVYLQMNSLKPEDTAVYYCNALTWDHSRTGVDYWGQGTQVTVSS	low polyreactivity
QVQLVESGGGLVQAGGSLRLSSAASGFIFGAYAMGWYRQAPGKERELVAANSSRGGNTYYADSVKGRFTISRDNAKNTVYLQMNSLKPEDPAVYDCNAVGYAPYLYVPPPYEYWGQGTQVTVSS	high polyreactivity
QVQLVESGGGLVQAGGSLRLSSAASGFIFGSNAMGWYRQAPGKERELVAAISRSGGSTYYADSVKGRFTISRDNAKNTVYLQMNSLKPEDTAVYYCASYLYKSRYLPEYDYWGQGTQVTVSS	high polyreactivity
QVQLVESGGGLVQAGGSLRLSSAASGFIFTWYAMGWYIQAPGKERELVAAISSSGGRTYYADSVKGRFTISRDNAKNTVYLQMNSLKPEDSAVYYCTAVKFIRQHSEYDYWGQGTLVTVSS	high polyreactivity
QVQLVESGGGLVQAGGSLRLSSAASGFIFYQYAMGWYRQAPGKERELVAAISKSGGNTYYADSVKGRFTISRDNAKNTVYLQMNSLKPEDSAVYYCAADRGQRGMYYWGQGTQVSVSS	high polyreactivity
QVQLVESGGGLVQAGGSLRLSSAASGFTFASYAMGWYRQAPGKERELVAAIDSDDSTNYADSVKGRFTISRDNAKNTVYLHMNSLKPEDTSVYYCAADEGPYYGIYEYYYWGQGTQVTVSS	high polyreactivity
QVQLVESGGGLVQAGGSLRLSSAASGFTFAYNDLGWSRQAPGKERELVATITNSGASTSYADSEKGRFTISRDNAKNTVYLQMNSLKPEDTAVYYCNVGLWRYVRFTGRYYPYDYWGQGTQVTVSS	high polyreactivity
QVQLVESGGGLVQAGGSLRLSSAASGFTFVINDMGWYRPAPGKERELVADITSGGDTYYADSVKGRFTISRDNAKNTVYLQMNSLKPEDTAVYYCAADIYPDWIYLLYGYWGQGTQVTVSS	low polyreactivity
QVQLVESGGGLVQAGGSLRLSSAASGFTLYYYTMGWYRQAPGKERELVAAITSGGDTYYADSVKGRFTISRDNAKNTVYLHMHSLKPEDTAVYYCAADYGTQYGEYTYYDYDYWGKGTQVTVSS	low polyreactivity
QVQLVESGGGLVQAGGSLRLSSAASGITFATYAMGWYRQAPGKERELVAAISSSTGSTYYADSVKGRFTISRDNAKNTVYLQMNSLKPEDTAVYYCAAVRTQQYDYWGQGTQVTVSS	low polyreactivity
QVQLVESGGGLVQAGGSLRLSSAASGITFAYYAMGWYRLAPGTVRELVAAISSTGSSTYYADSVKGRFTISRDNAKNTVYLQMNSLKPEDTAVYYCAARVHYRGIVRYDYWGQGTQVTVSS	high polyreactivity
QVQLVESGGGLVQAGGSLRLSSAASGITFKAYAMGWYRHAPGKERELVAAISGSGGATYYADSVEGRFTISRDNEKNTVYLQMISLKPEVTAVYYCAARAVSLTGYRFGYWGQGTQVTVSS	high polyreactivity
QVQLVESGGGLVQAGGSLRLSSAASGITFRFYSMGWYRQAPGKEREFVAAISTRGGRTYYADSVKGRFTISRDNAKNTVYLQMKSLKPEDTAVYYFAADFYYRTVATVTSVARYDYWGQGTQVTVSS	high polyreactivity
QVQLVESGGGLVQAGGSLRLSSAASGITFRYYTMGWYRQAPGKERELVAAITWSGGSTYYADSVKGRFTISRDNAKNTVYLQMNSLKPEDTAVYYGAADSYRFRYSGYDYWGQGTQVTVSS	high polyreactivity
QVQLVESGGGLVQAGGSLRLSSAASGLIFSVNAMGWYRQAPGKESEMIAAISKSGGRTYYADSVKGRFTISRDNAKNTVYLQMNSLKPEDTAVYYCAKRSRWNYKGYGTCGYYWGQGTQVTVSS	high polyreactivity
QVQLVESGGGLVQAGGSLRLSSAASGLIFYDNMGWSRQAPGKERELDAAISSSGGSTSDADSVKGRFTISRDNAKNTVYLQMNSLKPEDTAVYYCAADSYPDYLGFVGFDYWGQGTQVTVSS	low polyreactivity
QVQLVESGGGLVQAGGSLRLSSAASGLIFYWYAMGWYRQAPGKERELVAAISSAGSTNYADSVKGRFTISRDNAKNTVYLQMNSLKPEDTAVYYCAKGGYSPKSVKYYDYWGQGTQVTVSS	low polyreactivity
QVQLVESGGGLVQAGGSLRLSSAASGLTFALYAMGWYRQAPGKERELVATISRGASTNYADSVKGRFTISRDNTKNTVYLQMNSLKPEDTAVYYWAVALRSTPRTREVRPSPRVYYWGQGTQVTVSS	high polyreactivity
QVQLVESGGGLVQAGGSLRLSSAASGNIFKSYTMGWYRQAPGKERELVAAITSGGRTNYGDSVKGRFTISRDNAKNTVYLQMNSLKPEDTAVYYCNAYKVFWVSIRYKFDYWGQGTQVTVSS	high polyreactivity
QVQLVESGGGLVQAGGSLRLSSAASGRIFAYNAMGWYRQAPGKEREFVAAITLGTGRTYYADSVKGRFTISRDNAKNTDYLQMNSLKAEDTAVYYCAARRVRGDVDYWYIYDYWGQGTQVTVSS	high polyreactivity
QVQLVESGGGLVQAGGSLRLSSAASGRIFDANDMGWYRQAPGQERELVAVISSRGGSTYYADSVKGRFTISRDNAKNTVDLQMNSLKPEEAAVYYCAKGLSVAGYDYWGQGTQVTVSS	low polyreactivity
